Legend:
AOS (CYP74A) = molecular target: T1, AOS (CYP74A) (Arabidopsis thaliana, UniProt Q96242); experiment: cis-(+)-12-OPDA formation by free enzymes, HPLC / GC-MS; format: biochemical; details: free enzymes (SDS-dissociated, dialyzed complex), read-out coupled through AOC2; 10 min
T1 construct: free enzyme from SDS-dissociated, dialyzed envelope complex; bacterially expressed C-terminal (His)6 AOS, imported into Arabidopsis chloroplasts (transit peptide cleaved)
T1 sequence (Q96242 34-518): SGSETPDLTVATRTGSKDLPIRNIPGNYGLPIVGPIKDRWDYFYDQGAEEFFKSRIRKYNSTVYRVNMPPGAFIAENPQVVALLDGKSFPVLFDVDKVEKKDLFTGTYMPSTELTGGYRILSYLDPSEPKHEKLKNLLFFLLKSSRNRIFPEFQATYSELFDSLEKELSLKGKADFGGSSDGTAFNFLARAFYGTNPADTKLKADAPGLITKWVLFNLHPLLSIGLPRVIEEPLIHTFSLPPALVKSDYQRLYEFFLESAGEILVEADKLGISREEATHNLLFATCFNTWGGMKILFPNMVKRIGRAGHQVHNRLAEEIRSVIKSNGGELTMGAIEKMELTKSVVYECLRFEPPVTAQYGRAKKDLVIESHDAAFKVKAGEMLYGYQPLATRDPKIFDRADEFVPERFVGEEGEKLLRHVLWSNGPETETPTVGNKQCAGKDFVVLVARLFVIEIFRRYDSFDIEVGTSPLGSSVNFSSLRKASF

[1] = molecular target: LOX2-AOS-AOC2 plastid envelope complex (Arabidopsis thaliana, UniProt P38418); details: intact complex, coupled LOX2-AOS-AOC2 turnover; α-LeA is the LOX2 substrate
[2] = molecular target: T2, C-terminal, (His)6-tagged allene oxide synthase [AOS-(His)6] (A. thaliana, UniProt Q96242 34-518); experiment: cell-based or functional assay
T2 sequence (looked up): T1 sequence (Q96242 34-518)

[3] = molecular target: T2, C-terminal, (His)6-tagged allene oxide …; experiment: pull-down; purified (His)6-tagged bait imported into isolated Arabidopsis chloroplasts (2.5 mM Mg-ATP); mixed envelopes solubilised with 1.3% decyl maltoside; Ni-NTA affinity chromatography, size exclusion on Superose 6 (peak I, ~250 kDa); co-purified bands identified by SDS-PAGE with protein sequencing, LOX2 also by western blot; details: one partner purified
[4] = molecular target: the molecule itself; experiment: SDS-PAGE with protein sequencing; bands of the proteins co-purified with AOS-(His)6 in peak I; ~72 kDa and ~24 kDa bands both sequenced as AOC2
[5] = molecular target: T3, soluble, catalytically active AOS used for reconstitution of the complex (A. thaliana, UniProt Q96242 34-518); experiment: reconstitution of the complex in vitro; complex reconstituted from soluble, catalytically active LOX2, AOS and AOC2 and isolated plastid envelope lipids (Supplementary Fig. S8)
T3 construct: allene oxide synthase (AOS, CYP74A), A. thaliana
T3 sequence: T1 sequence (Q96242 34-518)

CC/C=C\C[C@@H](/C=C/C=C\CCCCCCCC(=O)O)OO [13-HPOT, (9Z11E15Z13S)-13-hydroperoxy-9,11,15-octadecatrienoic acid]
cis-(+)-12-OPDA formation by free enzymes, HPLC / GC-MS (AOS (CYP74A)): but it was accepted in the free-enzyme assay (Fig. 5C)

CC/C=C\C/C=C\C/C=C\CCCCCCCC(=O)O [α-linolenic acid]
cis-(+)-12-OPDA formation by isolated complex, HPLC / GC-MS [1]: α-LeA was converted to cis-(+)-12-OPDA by the isolated, intact (non-SDS-dissociated) plastid envelope complex

B1: lipoxygenase 2 (LOX2), endogenous in the envelope of Arabidopsis chloroplasts (enzyme, UniProt P38418 57-896, looked up)
chain: ANIEQEGNTVKEPIQNIKVKGYITAQEEFLEGITWSRGLDDIADIRGRSLLVELISAKTDQRITVEDYAQRVWAEAPDEKYECEFEMPEDFGPVGAIKIQNQYHRQLFLKGVELKLPGGSITFTCESWVAPKSVDPTKRIFFSDKSYLPSQTPEPLKKYRKEELETLQGKNREEVGEFTKFERIYDYDVYNDVGDPDNDPELARPVIGGLTHPYPRRCKTGRKPCETDPSSEQRYGGEFYVPRDEEFSTAKGTSFTGKAVLAALPSIFPQIESVLLSPQEPFPHFKAIQNLFEEGIQLPKDAGLLPLLPRIIKALGEAQDDILQFDAPVLINRDRFSWLRDDEFARQTLAGLNPYSIQLVEEWPLISKLDPAVYGDPTSLITWEIVEREVKGNMTVDEALKNKRLFVLDYHDLLLPYVNKVRELNNTTLYASRTLFFLSDDSTLRPVAIELTCPPNINKPQWKQVFTPGYDATSCWLWNLAKTHAISHDAGYHQLISHWLRTHACTEPYIIAANRQLSAMHPIYRLLHPHFRYTMEINARARQSLVNGGGIIETCFWPGKYALELSSAVYGKLWRFDQEGLPADLIKRGLAEEDKTAEHGVRLTIPDYPFANDGLILWDAIKEWVTDYVKHYYPDEELITSDEELQGWWSEVRNIGHGDKKDEPWWPVLKTQDDLIGVVTTIAWVTSGHHAAVNFGQYGYGGYFPNRPTTTRIRMPTEDPTDEALKEFYESPEKVLLKTYPSQKQATLVMVTLDLLSTHSPDEEYIGEQQEASWANEPVINAAFERFKGKLQYLEGVIDERNVNITLKNRAGAGVVKYELLKPTSEHGVTGMGVPYSISI
notes: lipoxygenase 2 (LOX2), A. thaliana, ~100 kDa band of the plastid envelope; also called 13-lipoxygenase; source: endogenous, envelopes of isolated Arabidopsis chloroplasts
rate of cis-(+)-12-OPDA formation from α-LeA by the intact LOX2-AOS-AOC2 envelope complex against the free-enzyme assay (complex dissociated with SDS and dialysed) [2]: 120 fold
stoichiometry N [3]: 1

B2: allene oxide cyclase 2 (AOC2), endogenous in the envelope of Arabidopsis chloroplasts (enzyme, UniProt Q9LS02 78-253, looked up)
chain: PSKVQELSVYEINELDRHSPKILKNAFSLMFGLGDLVPFTNKLYTGDLKKRVGITAGLCVVIEHVPEKKGERFEATYSFYFGDYGHLSVQGPYLTYEDSFLAITGGAGIFEGAYGQVKLQQLVYPTKLFYTFYLKGLANDLPLELTGTPVPPSKDIEPAPEAKALEPSGVISNYTN
notes: allene oxide cyclase 2 (AOC2), A. thaliana, ~72 kDa (SDS-resistant trimer) and ~24 kDa (monomer) bands of the plastid envelope; Found both as trimer and as monomer; source: endogenous, envelopes of isolated Arabidopsis chloroplasts
stoichiometry N [4]: 3
rate of cis-(+)-12-OPDA formation from α-LeA by the intact LOX2-AOS-AOC2 envelope complex against the free-enzyme assay (complex dissociated with SDS and dialysed) [2]: 120 fold
stoichiometry N [3]: 4

B3: soluble, catalytically active LOX2 used for reconstitution of the complex (enzyme, A. thaliana, UniProt P38418 57-896, looked up)
chain: B1 chain
notes: lipoxygenase 2 (LOX2), A. thaliana
stoichiometry N [5]: 1

B4: soluble, catalytically active AOC2 used for reconstitution of the complex (enzyme, A. thaliana)
chain: B2 chain
notes: allene oxide cyclase 2 (AOC2), A. thaliana
stoichiometry N [5]: 4
